Results as given in US20250243471A1.

Assays:
[1] = target: PhiV-1 gp8 portal protein (coliphage PhiV-1); test: cryo-EM structure of the EcAvs4-portal complex
[2] = target: EcAvs4 Q63A/K65A with internal TwinStrep tag between residues 114 and 115 (cryo-EM construct) (Escherichia coli NCTC11132); test: cryo-EM; interface between adjacent STAND ATPase domains in the portal-bound EcAvs4 tetramer
[3] = target: PhiV-1 gp8 portal protein (coliphage PhiV-1); test: cell-based or functional assay
[4] = target: PhiV-1 gp19 large terminase subunit (coliphage PhiV-1); test: cell-based or functional assay
[5] = target: PhiV-1 gp19 large terminase subunit (coliphage PhiV-1); test: cryo-EM structure of the SeAvs3-terminase complex
[6] = target: SeAvs3 from Salmonella enterica NCTC13175 with C-terminal 6xHis tag (purified recombinant) (Salmonella enterica NCTC13175); test: cryo-EM; interface between adjacent STAND ATPase domains in the terminase-bound SeAvs3 tetramer
[7] = target: PhiV-1 gp19 terminase with StrepTag (gp19-StrepTag) (coliphage PhiV-1); test: tandem affinity purification (Ni-NTA, Strep-Tactin), Superose 6 Increase peak, SDS-PAGE band intensity

EcAvs4 Q63A/K65A with internal TwinStrep tag between residues 114 and 115 (cryo-EM construct) (receptor)
buried solvent-accessible surface area [1]: 5800 Å2
buried surface area [2]: 1230 Å^2

EcAvs4 from Escherichia coli NCTC11132 expressed in E. coli (genetic assays) (receptor)
Abundance relative to E. coli NovaBlue control (PhiV-1 fragment screen, deep sequencing of surviving plasmids) [3]: < 0.0001
Abundance relative to E. coli NovaBlue control (PhiV-1 fragment screen, deep sequencing of surviving plasmids) [4]: 0.11

SeAvs3 from Salmonella enterica NCTC13175 expressed in E. coli (genetic assays) (receptor)
Abundance relative to E. coli NovaBlue control (PhiV-1 fragment screen, deep sequencing of surviving plasmids) [3]: 0.65
Abundance relative to E. coli NovaBlue control (PhiV-1 fragment screen, deep sequencing of surviving plasmids) [4]: < 0.0001

SeAvs3 from Salmonella enterica NCTC13175 with C-terminal 6xHis tag (purified recombinant) (receptor)
buried solvent-accessible surface area [5]: > 3700 Å2
buried surface area [6]: 436 Å^2
ratio of SeAvs3 and gp19 in the complex peak (SeAvs3:gp19 ratio) [7]: 1
